# Assay results reported in the RNAGym collection of RNA variant scans (doi:10.1073/pnas.2313332121).
# Fewer inactive variants are shown than the library holds.
# B1: TPR 5TU (parent)
# chain: GGAUCUUCUCGAUCUAACAAAAAAGACAAAUCUGCCACAAAGCUUGAGAGCAUCUUCGGAUGCAGAGGCGGCAGCCUUCGGUGGCGCGAUAGCGCCAACGUUCUCAACUAUGACACGCAAAACGCGUGCUCCGUUGAAUGGAGUUUAUCAUG
# Variants of: B1
# Assay: polymerase ribozyme fitness, log enrichment relative to wild type (log ratio); higher = more active; in vitro selection for triplet polymerase activity
# In short: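 Fitness compares each genotype's enrichment to that of the wild type on a logarithmic scale, averaging replicates with inverse-variance weights. The logarithm is base 2. Enrichment came from Illumina sequencing of input and output libraries after one triplicate round of in vitro selection, which included frozen incubation at −7 °C, of PCR-built, transcribed mutant libraries of each subunit of a heterodimeric triplet polymerase ribozyme. Only genotypes with ≥10 input reads and ≥1 read per output were kept.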
row,Variant,polymerase ribozyme fitness (log ratio)
1,GGAUCUUCUCGAUCUAACAAAAAAGACAAAUCUGCCACAAAGCUUGAGAGCAUCUUCGGAGGCAGAAUCGGCAGCCUUCGGUGGCGAGAUAGCGCCAACGUUCUCAUCUAUGACACGCAAAACGCCUGCUCCGUUGAAUGGAGUUUAUGAUG [U61G G67A G68U C87A A107U G126C C149G],≤ -4.2
2,GGAUCUUCUCGAUCUAACAAAAAAGACAAAUCUGCCACAAAGCUUGAGAGCAUCUUCGGAUACAGAGGCGGCAGCCUUCGGUGGCGUGAUAGCGCCAACGUUCUCAACUAUGACAUUCAAAACGCGUGCUCCGUUGAAUGGAGUUUAUCAUG [G62A C87U C116U G117U],-0.42
3,GGAUCUUCUCGAUCUAACAAAAAAGACAAAUCUGCCACAAAGCUUGAGAGCAUCUUCGGAGGCAGAGGCGGCAGCCUUCGGUGGCGCGAUAGCGCCAACGUUCUCAACUAUGACACGCAAAACGAGUGCUCCGUUGAAUGGAGUUUAUCAUG [U61G C125A],-1.26
4,GGAUCUUCUCGAUCUAACAAAAAAGACAAAUCUGCCACAAAGCUUGAGAGCAUCUUCGGAGGCAGAGGCGGCAGCCUUCGGUGGCGCGAUAGCGCCAACGUUCUUAACUAUGACGCGCAAAACGCGUGCUCCGUUGAAUGGAGUUUCUCAUU [U61G C105U A115G A147C G152U],≤ -4.2
5,GGAUCUUCUCGAUCUAACAAAAAAGACAAAUCUGCCACAAAGCUUGAGAGCAUCUUCGGAGGCAGAGGCGGCAGCCUUCGGUGGCGCGAUAGCGCCAACGUUCUCAACUAUGACACGCAAAACCCGUGCUCCGUUGAAUGGAGUUUUUCAUG [U61G G124C A147U],-1.99
6,GGAUCUUCUCGAUCUAACAAAAAAGACAAAUCUGCCACAAAGCUUGAGAGCAUCUUCGGAUACAGAGGCGGCAGGCUUCGGUGGCGCGAUAGCGCAAACGUUCUCAACUAUGACACGCAAAACGCGUGCUCCGUUGAAUGGAGUUUAUCAUG [G62A C75G C96A],≤ -4.2
7,GGAUCUUCUCGAUCUAACAAAAAAGACAAAUCUGCCACAAAGCUUGAGAGCAUCUUCGGAUACAGAGGCGGCAGCCUUCGGUGGCGCGAUAGCGCAAACGUUCUCAACUAUGACACGCAAAACGCGUGCUCCGUUGAAUGGAGUUUAUCAUG [G62A C96A],-2.92
8,GGAUCUUCUCGAUCUAACAAAAAAGACAAAUCUGCCACAAAGCUUGAGAGCAUCUUCGGAUACAACGGCGGCAGCCCUCGGUGGCGCGAUAGCGCCAACGUUCUCAACUAUGACACGCAAAACGCGUGCUCCGUCGAAUGGAGUGUAUCAUG [G62A G65A A66C U77C U135C U145G],≤ -4.2
9,GGAUCUUCUCGAUCUAACAAAAAAGACAAAUCUGCCACAAAGCUUGAGAGCAUCUUCGGAUACAGAGGCGGCCGCCUUCGGUGGCGGGAUAGCGCCAACGUUCUCAACUAUGACACGCAAAACGCGUGCUCCGUUGAAUGGAGUUUAUCAUG [G62A A73C C87G],≤ -4.2
10,GGAUCUUCUCGAUCUAACAAAAAAGACAAAUCUGCCACAAAGCUUGAGAGCAUCUUCGGAUACAGAGGCGGCAGCUUUCGGUGGCGCGAUAGCGCCAACGUUCUCAACUAUGACACGCAAAACGCGUGCUCCGUUGAAUGGAGUUUAUCAUG [G62A C76U],-1.26
11,GGAUCUUCUCGAUCUAACAAAAAAGACAAAUCUGCCACAAAGCUUGAGAGCAUCUUCGGAUACAGAGGCGGCAGCCUUCGGUGGCGCGAUAGCGCCAACGUUCUCAACUAUGACGCGCAGAACGCGUGCUCCGUUGAAUGGAGUUUAUCAUG [G62A A115G A120G],-0.97
12,GGAUCUUCUCGAUCUAACAAAAAAGACAAAUCUGCCACAAAGCUUGAGAGCAUCUUCGGAUACAGAGGCGGCAGCCUUCGGUGGCGCGAUAGUGCCAACGUUCUCAACUAUGACACGUAAAACGCGUGCUCCGUUGAAUGGAUUUUAUCAUG [G62A C93U C118U G143U],-3.81
13,GGAUCUUCUCGAUCUAACAAAAAAGACAAAUCUGCCACAAAGCUUGAGAGCAUCUUCGGAUACAGAGGCGGCAGCCUUCGGUGGCGCGAUAGCGCCAACGUUAUCAACUAUGACACGCAAAACGCGUGCUCCGUUGAAUGGAGUUUAUCAUA [G62A C103A G152A],-3.85
14,GGAUCUUCUCGAUCUAACAAAAAAGACAAAUCUGCCACAAAGCUUGAGAGCAUCUUCGGAGGCAGAGGCGGCAGCCUUCGGUGGCGCCAUAGCGCCAACGUUCUCAACUAUGACACGCAAAACGCGUGCUCCGUUGAAUGGAGUUUAUCAUG [U61G G88C],≤ -4.2
15,GGAUCUUCUCGAUCUAACAAAAAAGACAAAUCUGCCACAAAGCUUGAGAGCAUCUUCGGAGGCAGAGGCGGCAGCCUUCGGUGGCGCGAUAGCGCCAACGUUCUCAACUAUGACACGCAAAACCCGUGCUCCGUUGAAUGGAGUUUAUCAUG [U61G G124C],-3.25
16,GGAUCUUCUCGAUCUAACAAAAAAGACAAAUCUGCCACAAAGCUUGAGAGCAUCUUCGGAGGCAGAGGCGGCAGCCUUCGGUGGCGCGAUAGCGCCAACGUUCUCAACUAUGACACCCAAAACGCGUGCUCCGUUGAAUGGCGUUGAUCAUG [U61G G117C A142C U146G],≤ -4.2
17,GGAUCUUCUCGAUCUAACAAAAAAGACAAAUCUGCCACAAAGCUUGAGAGCAUCUUCGGAUACAGAGGCGGCAGCCUUCGGUGGUUGGAUAGCGCCAACGUUCUCAACUAUGACACGCAAAACGCGUGCUCCGUUGAAUGGAGUUUAUCAUG [G62A C85U G86U C87G],≤ -4.2
18,GGAUCUUCUCGAUCUAACAAAAAAGACAAAUCUGCCACAAAGCUUGAGAGCAUCUUCGGAUACAGAGGCGGCAGCCUUCGGUGGUGCGAUAGCGCCAACGUUCUCAACUAUGACUCGCAAAACGCGUGCUCCGUUGAAUGUAGUUUAUCAUG [G62A C85U A115U G141U],-1.19
19,GGAUCUUCUCGAUCUAACAAAAAAGACAAAUCUGCCACAAAGCUUGAGAGCAUCUUCGGAUACAGAGGCGGCAGCCUUCGGUGGCGCGAUAGCGCCAACGUUCUCAACUAUGACACGCACAACGCGUGCUCCGUUGAAUGGAGUUUAUCAUG [G62A A120C],-1.04
